Experimental data as given in publication PMC11667672.

Experiments:
Cys145 [1] = molecular target: Cys145 (UniProt position 3385, FLNGSCGSVGF); test: chemical modification; conditions: cited from earlier work
His41 [2] = molecular target: T1, His41 (UniProt position 3304, VYCPRHVICTS); test: chemical modification; conditions: preincubation with DEPC on ice for 10-60 s; residual activity assay temperature per Table 1 footnote 25 °C; 150 mM NaCl in constant-ionic-strength mixed buffers; free enzyme (apo), 2 µM
Cys145 [3] = molecular target: T2, Cys145 (UniProt position 3408, FLNGSCGSVGF); test: chemical modification; conditions: preincubation with IAM on ice; residual activity assayed at 25 °C (Table 1 footnote says 25 °C); 150 mM NaCl in constant-ionic-strength mixed buffers; free enzyme (apo), 2 µM
His41 [4] = molecular target: T1, His41; test: kinetics; conditions: 150 mM NaCl in constant-ionic-strength mixed buffers
Cys145 [5] = molecular target: T2, Cys145; test: kinetics; conditions: 150 mM NaCl in constant-ionic-strength mixed buffers
[6] = 25 °C (Table 1 footnote), apo (free) enzyme
[7] = 25 °C, free enzyme (kcat/Ka reports on free enzyme and free substrate)
[8] = 25 °C, free enzyme binding the inhibitor

Row | Substance | pKa (Cys145 [1]) | pKa (His41 [2]) | pKa (Cys145 [3]) | pKa (His41 [4]; [6]) | pKa (His41 [4]; [7]) | pKa (His41 [4]; [8]) | pKa (His41 [4]; 25 °C, free enzyme in D2O) | pKa (Cys145 [5]; [6]) | pKa (Cys145 [5]; [7]) | pKa (Cys145 [5]; [8]) | pKa (Cys145 [5]; 25 °C, free enzyme in D2O)
1 | 3-chymotrypsin-like protease (3CLpro, Main protease, nsp5) (Severe acute respiratory syndrome coronavirus (SARS-CoV)) | 7.8 ± 0.1 |  |  |  |  |  |  |  |  |  | 
2 | 3-chymotrypsin-like protease (3CL-PR; Main protease, Mpro, nsp5) (Severe acute respiratory syndrome coronavirus 2 (SARS-CoV-2)) |  | 6.05 ± 0.07 | 7.8 ± 0.1 | 6.2 ± 0.3 | 5.9 ± 0.1 | 6.5 ± 0.2 | 6.10 ± 0.07 | 8.2 ± 0.4 | 8.39 ± 0.07 | 8.5 ± 0.1 | 9.06 ± 0.06
